One block for each compound: values may come before it.
Columns and labels:
[1] = molecular target: Drosophila melanogaster K+-Cl- cotransporter (DmKCC) variant B (Drosophila melanogaster); assay: SEC; Superdex 200 10/300 gel filtration in 20 mM HEPES pH 7.4, 150 mM NaCl, 50 mM KCl, 0.015% DDM, 0.003% CHS, 5% glycerol; elution profile compared with that of HvKCC, whose dimer was verified by SEC-MALLS
[2] = molecular target: T1, DmKCC (Drosophila melanogaster, UniProt Q7KVH5); assay: K+ influx into proteoliposomes, fluorescent K+ probe (ION Potassium Green-2 TMA+); format: biochemical
T1 construct: gene kcc; full-length cDNA, N-terminal 8xHis and FLAG tags (no cleavage stated), Sf9 baculovirus expression, DDM/CHS Ni-NTA purified, reconstituted in azolectin proteoliposomes
T1 sequence (Q7KVH5 1-1028): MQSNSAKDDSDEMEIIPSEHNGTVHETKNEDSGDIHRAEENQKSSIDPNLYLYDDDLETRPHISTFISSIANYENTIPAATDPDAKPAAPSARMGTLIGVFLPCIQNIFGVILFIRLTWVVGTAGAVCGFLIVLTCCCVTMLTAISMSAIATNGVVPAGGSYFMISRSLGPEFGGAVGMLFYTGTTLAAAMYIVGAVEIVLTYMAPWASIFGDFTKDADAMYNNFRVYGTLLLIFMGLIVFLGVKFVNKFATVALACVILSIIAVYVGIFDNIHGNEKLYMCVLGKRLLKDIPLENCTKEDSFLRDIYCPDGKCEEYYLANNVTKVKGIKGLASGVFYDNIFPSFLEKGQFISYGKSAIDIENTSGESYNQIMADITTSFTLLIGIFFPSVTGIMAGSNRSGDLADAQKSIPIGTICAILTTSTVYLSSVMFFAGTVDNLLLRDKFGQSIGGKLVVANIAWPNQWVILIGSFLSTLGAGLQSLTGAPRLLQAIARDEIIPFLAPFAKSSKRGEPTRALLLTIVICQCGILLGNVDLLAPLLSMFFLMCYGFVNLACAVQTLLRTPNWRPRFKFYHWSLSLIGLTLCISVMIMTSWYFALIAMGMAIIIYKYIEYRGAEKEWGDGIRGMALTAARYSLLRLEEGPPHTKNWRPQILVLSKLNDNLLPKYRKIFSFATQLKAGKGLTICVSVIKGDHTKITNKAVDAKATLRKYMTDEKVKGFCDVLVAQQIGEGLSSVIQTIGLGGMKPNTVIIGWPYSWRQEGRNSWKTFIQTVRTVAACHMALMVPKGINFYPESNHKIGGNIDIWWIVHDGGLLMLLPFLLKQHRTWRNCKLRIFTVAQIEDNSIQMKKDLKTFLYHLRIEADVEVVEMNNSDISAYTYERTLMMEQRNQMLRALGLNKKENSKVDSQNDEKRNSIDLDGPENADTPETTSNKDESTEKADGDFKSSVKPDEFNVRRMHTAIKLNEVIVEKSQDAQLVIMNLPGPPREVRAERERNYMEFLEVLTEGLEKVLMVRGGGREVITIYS

[3] = molecular target: Hydra vulgaris K+-Cl- cotransporter (HvKCC) (Hydra vulgaris); assay: SEC-MALS; SEC-MALLS; protein at 1.0 mg/mL on Superdex 200 10/300 in 20 mM HEPES pH 7.4, 150 mM NaCl, 50 mM KCl, 0.015% DDM, 0.003% CHS, 5% glycerol; protein conjugate analysis (ASTRA 6); single measurement

stoichiometry N [1]: 2
Compound: Drosophila melanogaster K+-Cl- cotransporter (DmKCC) variant B (natural protein)

Compound: O=S(=O)(O)c1cc(N=C=S)ccc1C=Cc1ccc(N=C=S)cc1S(=O)(=O)O [DIDS, 4,4′‐diisothiocyano‐2,2′‐stilbenedisulfonic acid]
IC50 [2]: 25 nM

stoichiometry N [3]: 2
Compound: Hydra vulgaris K+-Cl- cotransporter (HvKCC) (natural protein)

— paper PMC12401179, “Biophysical characterization and ion transport with cell‐based and proteoliposome reconstitution assays of invertebrate K^+‐Cl^− cotransporters” (FEBS Open Bio, 2025)
